Target: human Gal10-His (human) (UniProt Q05315)
Assay: competition ELISA on coated Gal10-His; negative control, competitor g7B07-hFab-Biot; set as 0%

Chain of human Gal10-His (human) (Q05315 2-142 limits assumed): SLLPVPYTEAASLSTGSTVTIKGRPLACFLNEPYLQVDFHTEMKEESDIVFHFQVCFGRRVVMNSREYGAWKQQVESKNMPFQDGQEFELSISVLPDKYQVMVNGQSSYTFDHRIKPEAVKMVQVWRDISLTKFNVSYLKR

## Motavizumab in a human Fab backbone
  % Competition against g7B07-Biot: 0%
  Mean OD value: 2.51 OD
